According to the supplement of paper PMC11246515:
± gives the standard deviation of the averaged measurements.

Assay: total protein half-life in vivo (active degradation + dilution); higher = more stable protein
[1] = E. coli NCM3722 delta-clpP delta-lon delta-hslV, growth: N-lim chemostat, doubling time 6 h
[2] = E. coli NCM3722 delta-clpP, growth: N-lim chemostat, doubling time 6 h
[3] = E. coli NCM3722 delta-hslV, growth: N-lim chemostat, doubling time 6 h
[4] = E. coli NCM3722 delta-smpB, growth: N-lim chemostat, doubling time 6 h
[5] = wild type E. coli NCM3722, growth: C-lim chemostat, doubling time 3 h
[6] = wild type E. coli NCM3722, growth: C-lim chemostat, doubling time 6 h
[7] = wild type E. coli NCM3722, growth: C-lim chemostat, doubling time 12 h
[8] = wild type E. coli NCM3722, growth: N-lim chemostat, doubling time 6 h
[9] = wild type E. coli NCM3722, growth: N-lim chemostat, doubling time 12 h
[10] = wild type E. coli NCM3722, growth: P-lim chemostat, doubling time 6 h
[11] = wild type E. coli NCM3722, growth: P-lim chemostat, doubling time 12 h
[12] = E. coli NCM3722 delta-lon, growth: N-lim chemostat, doubling time 6 h

Row | Sequence | total protein half-life in vivo [1] [h] | total protein half-life in vivo [2] [h] | total protein half-life in vivo [3] [h] | total protein half-life in vivo [4] [h] | total protein half-life in vivo [5] [h] | total protein half-life in vivo [6] [h] | total protein half-life in vivo [7] [h] | total protein half-life in vivo [8] [h] | total protein half-life in vivo [9] [h] | total protein half-life in vivo [10] [h] | total protein half-life in vivo [11] [h] | total protein half-life in vivo [12] [h]
1 | MDLLIVLTYVALAWAVFKIFRIPVNQWTLATAALGGVFLVSGLILLMNYNHPYTFTAQKAVIAIPITPQVTGIVTEVTDKNNQLIQKGEVLFKLDPVRYQARVDRLQADLMTATHNIKTLRAQLTEAQANTTQVSAERDRLFKNYQRYLKGSQAAVNPFSERDIDDARQNFLAQDALVKGSVAEQAQIQSQLDSMVNGEQSQIVSLRAQLTEAKYNLEQTVIRAPSNGYVTQVLIRPGTYAAALPLRPVMVFIPEQKRQIVAQFRQNSLLRLKPGDDAEVVFNALPGQVFHGKLTSILPVVPGGSYQAQGVLQSLTVVPGTDGVLGTIELDPNDDIDALPDGIYAQVAVYSDHFSHVSVMRKVLLRMTSWMHYLYLDH [P0AFV0] | 3.52 | – | – | – | – | – | – | – | – | – | – | –
2 | MDLSQLTPRRPYLLRAFYEWLLDNQLTPHLVVDVTLPGVQVPMEYARDGQIVLNIAPRAVGNLELANDEVRFNARFGGIPRQVSVPLAAVLAIYARENGAGTMFEPEAAYDEDTSIMNDEEASADNETVMSVIDGDKPDHDDDTHPDDEPPQPPRGGRPALRVVK [P0AFZ3] | 5.705 ± 0.0087 | 4.58 ± 0.2 | 3.9 ± 0.61 | 3.43 ± 0.19 | 2.69 ± 0.14 | 5.89 ± 0.079 | 7.4 ± 0.38 | 3.26 | 6.17 ± 3 | 3.73 ± 0.69 | 7.51 ± 0.57 | –
3 | MDLTQLEMFNAVAEAGSITQAAAKVHRVPSNLTTRLRQLETELGVDLFIRENQRLRLSPAGHNFLRYSQQILALVDEARSVVAGDEPQGLFSLGSLESTAAVRIPATLAEFNRRYPKIQFSLSTGPSGTMLDGVLEGKLNAAFIDGPINHTAIDGIPVYREELMIVTPQGYAPVTRASQVNGSNIYAFRANCSYRRHFESWFHADGAAPGTIHEMESYHGMLACVIAGAGIALIPRSMLESMPGHHQVEAWPLAEQWRWLTTWLVWRRGAKTRPLEAFIQLLDVPDSARQGYQ | > 8 | 5.2 | 4.72 | 4.76 | 2.76 | – | 8.27 | – | 12.1 ± 2.1 | 6.44 ± 1 | 10.7 ± 2.1 | 4.66
4 | MDNLDVICIGAAIVDIPLQPVSKNIFDVDSYPLERIAMTTGGDAINEATIISRLGHRTALMSRIGKDAAGQFILDHCRKENIDIQSLKQDVSIDTSINVGLVTEDGERTFVTNRNGSLWKLNIDDVDFARFSQAKLLSLASIFNSPLLDGKALTEIFTQAKARQMIICADMIKPRLNETLDDICEALSYVDYLFPNFAEAKLLTGKETLDEIADCFLACGVKTVVIKTGKDGCFIKRGDMTMKVPAVAGITAIDTIGAGDNFASGFIAALLEGKNLRECARFANATAAISVLSVGATTGVKNRKLVEQLLEEYEG | 4.78 | 4.22 | 5.06 ± 0.82 | 4.11 ± 0.23 | 3.18 ± 0.49 | 5.08 ± 0.33 | 10.1 ± 0.27 | 4.39 ± 0.065 | 7.58 ± 0.17 | 3.97 | 7.77 ± 1.9 | 4.44 ± 0.44
5 | MDNVELSPATRWGMIATGLLQGLVCYLLIAWLSGKNHSWIVYGVPATVAFSSVLLFSVISFKQKRLWGWLALVFIATLGMSGWLKWQTDGMNPWRAEKALWDFGCYLLLMAMLLLPWIQQSLRIRNDSSRYRYFYQSVWHNVLILLVIFLANGLTWLVLLLWSELFKLVGITFFNTLFFATDWFIYLTLGLVTALAVILARTQSRLIDSIQKLFTLIATGLLPLVSLLTLMFIITLPFTGLSAISRHISAAGLLLTLAFLQLILMAIVRDPQKASLPWTGPLRCLIKTALLVAPLYVFVAAWALWLRVAQYGWTVDRLQGVLAVLVLLVWSLGYFVSIVWRKGQNPVVLQGKVNLAVSLLVLVILVLLNSPVLDSMRISVNSHMARYQSGKNTSDQVTIYMLEQSGRYGRAALESLKSDAGFMKDPKRARDLLMALDGEQHLQQQVSEKVLADNVLIAPGSVKPDATFWSALIQDRYNVMTCIEKDACVLVEQDLNSDGQAERILFAFNDDRVIVYGFDSDRKEWDALDMSLLPNEITKEKLLTAAKDGKLGTKPKAWRDLVVDGERLNVNLNE | 4.79 | 3.51 | 3.21 | 2.97 ± 0.52 | 3.78 | 3.86 ± 0.18 | 6.23 | – | – | – | 3.39 | 3.27
6 | MDQALLDGGYRCYTGEKIDVYFNTAICQHSGNCVRGNGKLFNLKRKPWIMPDEVDVATVVKVIDTCPSGALKYRHK [P0AF59] | 5.57 ± 0.28 | 5.03 | 5.21 ± 0.78 | 4.29 ± 0.66 | 1.83 | – | 8.02 | 5.6 ± 1 | 8.71 ± 1.1 | – | 10.5 ± 0.21 | 6.02 ± 0.5
7 | MDQIRLTHLRQLEAESIHIIREVAAEFSNPVMLYSIGKDSSVMLHLARKAFYPGTLPFPLLHVDTGWKFREMYEFRDRTAKAYGCELLVHKNPEGVAMGINPFVHGSAKHTDIMKTEGLKQALNKYGFDAAFGGARRDEEKSRAKERIYSFRDRFHRWDPKNQRPELWHNYNGQINKGESIRVFPLSNWTEQDIWQYIWLENIDIVPLYLAAERPVLERDGMLMMIDDNRIDLQPGEVIKKRMVRFRTLGCWPLTGAVESNAQTLPEIIEEMLVSTTSERQGRVIDRDQAGSMELKKRQGYF | 5.8 ± 1.9 | 3.7 ± 0.045 | 1.49 ± 0.57 | 1.29 ± 0.12 | 1.58 ± 0.062 | 1.94 ± 0.21 | 2.88 ± 0.15 | 1.206 ± 0.0024 | 1.44 ± 0.29 | 1.46 ± 0.23 | 2.57 ± 0.54 | 1.35 ± 0.17
